According to PMC10456876:
Substitutions are numbered along the chain they refer to. Names and notes keep the numbering of the source.

T1: TRF1 (human), P54274
T1 chain: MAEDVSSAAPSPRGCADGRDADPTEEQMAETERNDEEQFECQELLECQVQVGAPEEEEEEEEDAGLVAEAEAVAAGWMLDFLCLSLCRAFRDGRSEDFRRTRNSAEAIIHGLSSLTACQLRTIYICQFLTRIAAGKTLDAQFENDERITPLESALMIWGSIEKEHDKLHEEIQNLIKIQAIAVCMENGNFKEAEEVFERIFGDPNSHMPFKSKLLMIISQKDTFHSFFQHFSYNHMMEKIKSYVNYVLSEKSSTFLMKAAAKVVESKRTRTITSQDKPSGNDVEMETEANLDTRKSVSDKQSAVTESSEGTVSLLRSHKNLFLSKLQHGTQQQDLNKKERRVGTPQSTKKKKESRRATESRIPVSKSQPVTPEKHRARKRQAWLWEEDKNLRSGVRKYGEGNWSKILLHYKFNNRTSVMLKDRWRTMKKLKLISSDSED

B1: wild-type MBP-tagged TRF1core (TRF1-TIN2-TPP1), P54274;Q9BSI4 S434D; S435D; S437D (protein)
chain 1: T1 chain with S434D, S435D, S437D
chain 2: MATPLVAGPAALRFAAAASWQVVRGRCVEHFPRVLEFLRSLRAVAPGLVRYRHHERLCMGLKAKVVVELILQGRPWAQVLKALNHHFPESGPIVRDPKATKQDLRKILEAQETFYQQVKQLSEAPVDLASKLQELEQEYGEPFLAAMEKLLFEYLCQLEKALPTPQAQQLQDVLSWMQPGVSITSSLAWRQYGVDMGWLLPECSVTDSVNLAEPMEQNPPQQQRLALHNPLPKAKPGTHLPQGPSSRTHPEPLAGRHFNLAPLGRRRVQSQWASTRGGHKERPTVMLFPFRNLGSPTQVISKPESKEEHAIYTADLAMGTRAASTGKSKSPCQTLGGRALKENPVDLPATEQKENCLDCYMDPLRLSLLPPRARKPVCPPSLCSSVITIGDLVLDSDEEENGQGEGKESLENYQKTKFDTLIPTLCEYLPPSGHGAIPVSSCDCRDSSRPL
chain 3: MAGSGRLVLRPWIRELILGSETPSSPRAGQLLEVLQDAEAAVAGPSHAPDTSDVGATLLVSDGTHSVRCLVTREALDTSDWEEKEFGFRGTEGRLLLLQDCGVHVQVAEGGAPAEFYLQVDRFSLLPTEQPRLRVPGCNQDLDVQKKLYDCLEEHLSESTSSNAGLSLSQLLDEMREDQEHQGALVCLAESCLTLEGPCTAPPVTHWAASRCKATGEAVYTVPSSMLCISENDQLILSSLGPCQRTQGPELPPPDPALQDLSLTLIASPPSSPSSSGTPALPGHMSSEESGTSISLLPALSLAAPDPGQRSSSQPSPAICSAPATLTPRSPHASRTPSSPLQSCTPSLSPRSHVPSPHQALVTRPQKPSLEFKEFVGLPCKNRPPFPRTGATRGAQEPCSVWEPPKRHRDGSAFQYEYEPPCTSLCARVQAVRLPPQLMAWALHFLMDAQPGSEPTPM
B2: wild-type MBP-tagged TRF1core (TRF1-TIN2-TPP1), P54274;Q9BSI4 L384A; W385A; K389A (protein)
chain 1: AEDVSSAAPSPRGCADGRDADPTEEQMAETERNDEEQFECQELLECQVQVGAPEEEEEEEEDAGLVAEAEAVAAGWMLDFLCLSLCRAFRDGRSEDFRRTRNSAEAIIHGLSSLTACQLRTIYICQFLTRIAAGKTLDAQFENDERITPLESALMIWGSIEKEHDKLHEEIQNLIKIQAIAVCMENGNFKEAEEVFERIFGDPNSHMPFKSKLLMIISQKDTFHSFFQHFSYNHMMEKIKSYVNYVLSEKSSTFLMKAAAKVVESKRTRTITSQDKPSGNDVEMETEANLDTRKSVSDKQSAVTESSEGTVSLLRSHKNLFLSKLQHGTQQQDLNKKERRVGTPQSTKKKKESRRATESRIPVSKSQPVTPEKHRARKRQAWAAEEDANLRSGVRKYGEGNWSKILLHYKFNNRTSVMLKDRWRTMKKLKLISSDSED
chain 2: B1 chain 2
chain 3: B1 chain 3
B3: TRF1, P54274 1-439 (natural protein)
chain: T1 chain
modifications: here or on the partner: phosphoserine at 434, 435 and 437 (likely by endogenous insect cell kinases; S435 phosphorylated in 87.3% of the identified peptides); phosphoserine at 434, 435 and 437 (likely by endogenous insect cell kinases; S435 phosphorylated in 87.3% of the identified peptides)

How the values were obtained:
[1] = molecular target: human telomeric nucleosome core particle (teloNCP), P68431;P62805;P04908;P06899; assay: EMSA; details: chain shown with the change, triplicate; for response: read off a plot; for EC50: titration 0, 23, 36, 55, 85, 130, 200 nM TRF1core against teloNCP
TRF1 (human), P54274 = molecular target: T1, TRF1 (human), P54274; assay: native MS; purified TRF1core (co-expressed in Sf9, co-purified through MBP on TIN2) at 20 uM, dialysed into 750 mM ammonium acetate pH 8.0, 1 mM DTT; details: remark: other sources report otherwise
[2] = point at 55 nM TRF1core, parent: est. 79

Binder	response [1, 2]	EC50 [1]	response ([1]; point at 200 nM TRF1core, parent: est. 100)	stoichiometry N (TRF1 (human), P54274)
B1	91 % Bound	30.3 nM	–	–
B2	68 % Bound	42.4 nM	97 % Bound	–
B3	–	–	–	2
